Laboratory results taken from patent US6022951A (priority 1996, dated 2000).

Experiment: stability against denaturation by guanidine hydrochloride (remaining biotin-binding ability)
Format: physicochemical
Procedure: Biotin-binding ability was used as an estimate of the structural stability.
Structural stability of core streptavidins against denaturation was estimated from the biotin-binding ability after incubation in guanidine hydrochloride solutions at pH 7.4 and pH 1.5. […] Then, 1.4 μl (680 pmol) of D-[carbonyl-^14 C]biotin was added to each solution. The mixture was incubated at 22° C. for 10 minutes and streptavidin-biotin complexes were separated from free, unbound biotin using PD-10 columns which had been equilibrated with the same guanidine hydrochloride solution (R. -D. Wei, Methods Enzymol. 18A:424-27, 1980).
All of the three core streptavidins bound more than 0.96 molecules of biotin per subunit at pH 7.4 without guanidine hydrochloride and the biotin-binding ability remaining in guanidine hydrochloride is indicated in percent.

[1] = 4 M guanidine hydrochloride, pH 1.5
[2] = 6 M guanidine hydrochloride, pH 7.4

For “full-length streptavidin: full length streptavidin, monomer of 159 amino acids”, the “biotin bound per subunit in guanidine hydrochloride” value [1] was “about 0.826 molecules biotin per subunit”, the “reduction (loss) of biotin-binding ability” value [1] was about 15% and the “biotin bound per subunit in guanidine hydrochloride” value [2] was “about 0.768 molecules biotin per subunit”. The “reduction in biotin-binding ability” value [2] was “about 20%”.
